The supplement of paper PMC7125110
± gives the standard error. This sample holds only a part of the variants without activity.

B1: glmS ribozyme (parent)
chain: AUAAAAGCGCCAGAACUACAGAAAUGUAGUUGACGAGGAGGAGGUUUAUCGAAUUUUCGGCGGAUGCCUCCAAA

What was measured:
Conditions in all cases: with glucosamine-6-phosphate
glucosamine-6-phosphate [1] = variants of: B1; test: self-cleavage kobs at 40 uM GlcN6P; higher = faster cleavage; RNA array
How it was run: (§1)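 kobs was derived by fitting per-tile medians to one- or two-exponential decays after normalising signals to baseline and to non-cleaving reference variants. Those signals came from barcoded ribozyme variants transcribed in situ by E. coli RNA polymerase on sequenced MiSeq chips, followed through a hybridised Cy3 probe at 37 °C and imaged over ~14 h. Glucosamine-6-phosphate (40 μM to 10 mM) in HEPES/KCl/Mg(OAc)2 buffer was flowed in. Weighted Michaelis–Menten fits across concentrations then gave kcat and KM.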

glucosamine-6-phosphate [2] = variants of: B1; test: self-cleavage kobs at 10000 uM GlcN6P; higher = faster cleavage; RNA array
How it was run: as §1

glucosamine-6-phosphate [3] = variants of: B1; test: self-cleavage kobs at 160 uM GlcN6P; higher = faster cleavage; RNA array
How it was run: as §1

glucosamine-6-phosphate [4] = variants of: B1; test: self-cleavage kobs at 2500 uM GlcN6P; higher = faster cleavage; RNA array
How it was run: as §1

glucosamine-6-phosphate [5] = variants of: B1; test: self-cleavage kobs at 640 uM GlcN6P; higher = faster cleavage; RNA array
How it was run: as §1

Variant | self-cleavage kobs at 40 uM GlcN6P (glucosamine-6-phosphate [1]) [s⁻¹] | self-cleavage kobs at 10000 uM GlcN6P (glucosamine-6-phosphate [2]) [s⁻¹] | self-cleavage kobs at 160 uM GlcN6P (glucosamine-6-phosphate [3]) [s⁻¹] | self-cleavage kobs at 2500 uM GlcN6P (glucosamine-6-phosphate [4]) [s⁻¹] | self-cleavage kobs at 640 uM GlcN6P (glucosamine-6-phosphate [5]) [s⁻¹]
G29A A53U C58G | < 1e-05 | 5.28e-05 ± 2.2e-05 |  |  | 
A15G G35A | < 1e-05 | < 1e-05 | < 1e-05 |  | 
G29U G41U G51A | < 1e-05 |  |  | < 1e-05 | 
C16G G35A U56G G63C | < 1e-05 | < 1e-05 |  |  | 
C16U U45C A48U C68U | < 1e-05 |  |  |  | 
A14U G37A G43U C68G C70G | < 1e-05 |  |  |  | 
G21U A39G | 0.00105 ± 0.00032 |  |  |  | 
A15U G38U C50G | 0.000125 ± 3.7e-05 |  |  |  | 
U30C C61U | < 1e-05 |  | < 1e-05 |  | 
U30C C61A | < 1e-05 | < 1e-05 |  |  | 
U30A U69G | < 1e-05 |  |  |  | 
G26U U31G G44U C50U | < 1e-05 | < 1e-05 |  | < 1e-05 | 
A15G G21U A33G | < 1e-05 | < 1e-05 |  |  | 
C16A G38C | < 1e-05 | < 1e-05 | < 1e-05 |  | < 1e-05
A15U G29C G43C | < 1e-05 |  |  |  | 
A15G U69C | 0.00027 ± 7e-05 |  |  | 0.00345 ± 0.0012 | 0.00141 ± 0.00058
A15G A33G G41C | < 1e-05 | < 1e-05 |  |  | 
C16U A33U G51C | < 1e-05 |  |  |  | 
C16U A53C U54A | 0.000103 ± 2.4e-05 | 0.00236 ± 0.00047 |  |  | 
C16U G51A | < 1e-05 |  | < 1e-05 |  | 
C16G U31C G37C A53G | < 1e-05 |  |  |  | 
U30C G59A C68U | < 1e-05 | < 1e-05 |  |  | 
A15U C34U | < 1e-05 |  | < 1e-05 | < 1e-05 | < 1e-05
A15C U49A | < 1e-05 | < 1e-05 |  |  | < 1e-05
U30C U31A G35U G37C | < 1e-05 |  |  |  | 

Variant | self-cleavage kobs at 40 uM GlcN6P (glucosamine-6-phosphate [1]) [s⁻¹] | self-cleavage kobs at 10000 uM GlcN6P (glucosamine-6-phosphate [2]) [s⁻¹] | self-cleavage kobs at 160 uM GlcN6P (glucosamine-6-phosphate [3]) [s⁻¹] | self-cleavage kobs at 2500 uM GlcN6P (glucosamine-6-phosphate [4]) [s⁻¹] | self-cleavage kobs at 640 uM GlcN6P (glucosamine-6-phosphate [5]) [s⁻¹]
C16G G29U C71U | 0.000193 ± 4.3e-05 | 0.013 ± 0.0037 |  | 0.00344 ± 0.0014 | 0.00358 ± 0.00079
U30A C34U | < 1e-05 |  | < 1e-05 | < 1e-05 | < 1e-05
A14U G37A A39C G59C | < 1e-05 |  |  |  | 
G29U A36U A52G | < 1e-05 |  |  |  | 
A15C G38A C67G | < 1e-05 |  |  |  | 
C16A G37C | < 1e-05 |  |  |  | 
A15G U30A U31G G41U | 0.00015 ± 5.1e-05 | 0.000456 ± 0.00017 |  |  | 
U30C A42C | < 1e-05 | < 1e-05 | < 1e-05 | < 1e-05 | 
A15G C34U | < 1e-05 | < 1e-05 | < 1e-05 | < 1e-05 | < 1e-05
A15U G40U G51U C71U | < 1e-05 |  |  |  | 
G26A C67U | 0.000613 ± 0.00023 |  |  |  | 
C19A C67A | 0.000243 ± 6.1e-05 | 0.000881 ± 0.00024 |  |  | 0.00033 ± 9.6e-05
A23C | 0.00185 ± 0.00044 | 0.0549 ± 0.021 | 0.00277 ± 0.00082 | 0.0102 ± 0.0033 | 0.00459 ± 0.0012
A28G G43C U45A C67G | < 1e-05 |  |  |  | 
A15G C70U | 0.00115 ± 0.00011 | 0.0598 ± 0.012 | 0.00217 ± 0.00032 | 0.0168 ± 0.0062 | 0.0045 ± 0.00057
A15G C70A | 5.87e-05 ± 7.8e-06 | 0.00111 ± 0.00023 | 9.45e-05 ± 1.1e-05 | 0.000382 ± 4e-05 | 0.000211 ± 2.2e-05
C16A G29C U56G A64G | 2.81e-05 ± 1.4e-05 | 0.00203 ± 0.00038 |  |  | 
C16A U57G | < 1e-05 |  |  |  | 
A15C C71A | 3.98e-05 ± 9.4e-06 | 0.00151 ± 0.00019 | 8.22e-05 ± 3.4e-05 | 0.000291 ± 7.5e-05 | 0.000136 ± 5.9e-05
C16A G44A | < 1e-05 |  | < 1e-05 |  | 
C16A G44U | < 1e-05 |  | < 1e-05 |  | < 1e-05
A15G G32A | 6.35e-05 ± 1.4e-05 | 0.00311 ± 0.00077 | 0.000114 ± 2.3e-05 | 0.00103 ± 0.00018 | 0.000628 ± 7.7e-05
G29A G38A A39U | < 1e-05 | < 1e-05 |  |  | < 1e-05
G29C G63U | < 1e-05 | < 1e-05 |  | < 1e-05 | 
A14U U56G | 0.000924 ± 0.00012 | 0.0462 ± 0.0095 | 0.00383 ± 0.00078 | 0.0108 ± 0.0026 | 0.0066 ± 0.0011
